Results from article PMC4878091 (The Journal of Cell Biology, 2016).

Target: recombinant collagen IV α2 monomer (α2-84/α2-CB3)
Experiment: SEC

B1: recombinant collagen IV α1 monomer (α1-84/α1-CB3) (domain or fragment)
chain: not shown
stoichiometry N: 2
